In article PMC5832849:

Biological target: scFvD8 mutant (scFvD8-M), L96Tyr to Ser and H98Asp to Ser (mouse)
Experiment: ELISA; competitive: scFv at 0.5 nM pre-incubated with preS1 recombinant protein (1000 to 0.01 nM in PBST) at 37 °C for 1 h, then added to plates coated with 100 nM preS1, room temperature 30 min; detected with HRP-labelled anti-SUMO antibody; relative affinity

Chain of scFvD8 mutant (scFvD8-M), L96Tyr to Ser and H98Asp to Ser (mouse) (heavy, as listed by the source, chain 1 of 2): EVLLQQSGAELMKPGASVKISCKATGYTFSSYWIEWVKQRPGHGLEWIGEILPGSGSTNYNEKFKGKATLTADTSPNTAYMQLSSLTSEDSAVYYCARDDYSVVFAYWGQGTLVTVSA
Chain of scFvD8 mutant (scFvD8-M), L96Tyr to Ser and H98Asp to Ser (mouse) (light, as listed by the source, chain 2 of 2): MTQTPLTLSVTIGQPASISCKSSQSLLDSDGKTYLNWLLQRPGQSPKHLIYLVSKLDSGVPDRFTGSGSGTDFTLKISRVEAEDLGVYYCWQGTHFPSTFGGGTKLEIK

relative affinity (concentration at 50% protein binding saturation): 5 nM
Substance: HBV preS1 recombinant protein (domain or fragment)
